Test results taken from the DeepSol protein solubility set.

Test: soluble on expression in E. coli; label from the status in PepcDB or PDB records

Which “soluble on expression in E. coli” value does the source give for “MTALEVLGGWPVPAAAAAVIGPAGVLATHGDTARVFALASVTKPLVARAAQVAVEEGVVNLDTPAGPPGSTVRHLLAHTSGLAMHSDQALARPGTRRMYSNYGFTVLAESVQRESGIEFGRYLTEAVCEPLGMVTTRLDGGPAAAGFGATSTVADLAVFAGDLLRPSTVSAQMHADATTVQFPGLDGVLPGYGVQRPNDWGLGFEIRNSKSPHWTGECNSTRTFGHFGQSGGFIWVDPKADLALVVLTARDFGDWALDLWPAISDAVLAEYTLEHHHHHH” here?
The value was “soluble”.

Which “soluble on expression in E. coli” value does the source give for “MTAPRYPRDMIGYGATPPNANWPGNARIAVQIVLNYEEGGENNILHGDAASEAFLSEIVGAAPWPGQRHWNMETIYEYGARAGFWRLHRLMRDLPVTVYGVATALARSPDQVAAMKSAGWEIASHGLKWVEHKDMPEEEERAQIAEAIRLHTEVTGSRPRGWYTGRCSMNTVRLASEAGIDYIADTYDDDLPYWKRIDGRDQLIVPYTLDCNDMRFATPQGFNSGDQFFAYLKDSFDALYAEGGEGAPKMLSIGLHCRLIGRPGRVMALKRFLDYARGHEDVWFATRLQIAEHWVREHPPVARTRPSEMPKADFVAAYGGIFEHSPWIAERAHGLELGPAHDTAGGLHNALCRMFRSASAEERLGVLTAHPDLAGKLAQAKRLTAESTSEQASAGLDALTDEERTTFTRLNTEYVARFGFPFIIAVRDHDKASILAAFQRRIGNDRETEFAEACRQVERIAEFRLRDVLPSLEHHHHHH” here?
The value was “soluble”.

With “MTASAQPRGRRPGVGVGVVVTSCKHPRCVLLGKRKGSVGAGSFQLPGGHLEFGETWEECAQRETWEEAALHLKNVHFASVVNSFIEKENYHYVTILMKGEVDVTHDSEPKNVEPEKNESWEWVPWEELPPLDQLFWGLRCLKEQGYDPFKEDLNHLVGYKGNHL” as the sequence, how does the “soluble on expression in E. coli” value read?
Its value is “soluble”.

Which “soluble on expression in E. coli” value does the source give for “MTASSPNRARTSLAAYASAGPVSLPAGSTRTVASGTSSRTRSAYASRVTASRSSAKAARSAVRRSRLRSSSPSASSCLGRWLRLAGYSRVPVPPASRTAATVCVTARSPGGWSACRRVRRRGPNACLRGASDRVHPGCGDLKGVGSKHRYVSHRNTRGDGYTTMSDLSDTAQEVHDDLSEHVDATVDDVEARLEKLVSEYKVPVDEARRSVENHYLDEAGLDRDDLAGGGGNDTVEVEDVDEAEQWVDITAKVVELWEPRSDSVGQVGLLGDPTGTIKFTKWAKSDLETLDEGQVYRLGNVVTDEYQGRYSVKLNKTTSIEAVDEEFEVGDNEDEVAGALVDVQSGSGLIKRCPEEDCTRVLQNGRCNEHGEGDGEFDLRIKGVLDDGTDVHEVIFDEEATEALTGIGLEEAKQMAKDALDTTVVADEMRATILGKYYRVTGPTFGRYVLANDTELLTTRPDTESVLIRARSILEHHHHHH” here?
Its value is “not soluble”.

Which “soluble on expression in E. coli” value does the source give for “MTDICMLKTMDSRNTNEAKQEPKTMVWWDINSCPVPDGYDARMVAHSIESELKKAGYPGPLTITAIGYLNTPLMCM” here?
Its value is “not soluble”.

For “MTDIPHDHPRYESLLAREKVAAGVKMGITSIQGLIAQGRGESFDYLIGERSTESALYAERAAVAALLLAENPVISVNGNVAALAPDKVVTLADITGARIEVNLFHRTDTRVHLIIEQLKASGAAEVLGKNPDASLELSHDRRLVSSKGIYTADVVLVPLEDGDRCEKLVEMGKTVITIDLNPLSRTSKTATISIVDNLTRALGNMAKFAQEMKKERKEELVKLITTYDNKRTLSEAISEIQEHLKTMAAETGLEHHHHHH”, which “soluble on expression in E. coli” value is on record?
Its value is “soluble”.

For “MTDKDLLHQKYYHGLLPREDIQEMLNKPGQFLLRTSEPVKGEKRQFVLSVVGEKNTSANHFVVREADHKVYVDKIGFPTIIELVNHYVSTKESFSTKDGTVKVVLKHAVERQKWELYHEDVELTKKLGEGAFGEVWKGKLLKILDANHQPVLVAVKTAKLESMTKEQIKEIMREARLMRNLDHINVVKFFGVAAGTEPLYVIMELADGGALDSALGKLHFPMIKKYELIYQAANGLAYIHEKNLMHRDVAARNCLYGGGQVKIADFGLSREGADYTMDLKKKVPIRWLPPETIRSGLYTPKTDVFAFGVMAWEITEDGKEPYPGFKVIEVAMKVLQGYRMPFSPEVNKEFAEFILTKCWPEKYEDRLPMKDICKWMKSSVKAQGGDTGPGGMMSKFGKKIKRSNSRESKSKSSTMTAAHGHDQGAMTAIEK”, which “soluble on expression in E. coli” value is on record?
The value was “not soluble”.

With “MTDPARMVELWRGGLLESWHTGHAAVWSADGGLVEAWGDPGTVIFPRSSCKMMQALPLLESGAGAGLSSQRLALACASHQGAELHTGHVGRWLTDLGLCEADLRCGAHMPADTAERDRLIRAYEEPCQIHNNCSGKHAGFLMLSQHLKAGPEYVEIDHPVQQAVRTAFEEVTDEASPGYGIDGCSAPNFATTVAGLARAMAFFAGASTGGGVRERSAARLVEAMIAHPELVAGEGRACTELMRAMGGRAAIKTGAEAVFVAIVPEKRLGIALKIVDGSTRASEAAIAALLVRHGLLDPAHPAARKRLDAIQTNWRGRETGILRAAPGFPLEHHHHHH” as the sequence, how does the “soluble on expression in E. coli” value read?
The value was “not soluble”.

With “MTDQGLEGSNPVDLSKHPSGIVPTLQNIVSTVNLDCKLDLKAIALQARNAEYNPKRFAAVIMRIREPKTTALIFASGKMVCTGAKSEDFSKMAARKYARIVQKLGFPAKFKDFKIQNIVGSCDVKFPIRLEGLAYSHAAFSSYEPELFPGLIYRMKVPKIVLLIFVSGKIVITGAKMRDETYKAFENIYPVLSEFRKIQQ” as the sequence, how does the “soluble on expression in E. coli” value read?
Its value is “soluble”.

Which “soluble on expression in E. coli” value does the source give for “MTDTNTLLVTSLEEGIGKTAITLALATRAHDAGYDVGYMKPKGTRLRSAVGKTRDEDPMLARELLDLETDLHDMEPIVYSPTFIQEAIRGREDPDDLRERLQEGIETCSDGTDMLLVEGSSDLATGSIVDLTDIDIAELLDARVLLVTGYDTPSDTDEILSAAEAIGDRLDGVLFNGVTDATVDELADDVVPFLEGEGIPVHGILPRDRSLAGVTVADLARNLGADILTGDANTDVHVERFSVGAMSGSSALERFRRTRDAVVVTGGDRSEVQTAALEASGINALLLTGGFQPASAVIGQAAEKNVPVLSVQSDTRTTIDRVEEVLRTGQTRNEATVDRMRTLLDDGVDVESLLSVDLLEHHHHHH” here?
Its value is “soluble”.

For “MTDYDSLDDNAFRLMVREWIAANYPQRIRNPPRRLGREETREWYLLLSRQGWLCPGWPREYGGMGLSAGKQLIMMEEMEEYGCARLPDSGVTMLGPLLIRYGDEAQRARFLPRILSGEDIWCQGYSEPNAGSDLASLRTEARLENGEWVINGQKTWTTMGSEANWIFLLVRTERSAKAQHGISFLLVPMDSLGIEVRPILNLELHGEFCEVFFNDVRVPYDSLVGEINQGWSMAKALLGFERIFLGSPKQSTFALQRLERLARHLGLWHDPLFARRFAALSMDLDSHKALYERFAERLRRGESLGPEVSMLKIFQSELFQRISELGLEIAGEDSALLQPFAEDPELHPAGIFIQSRPTTIYGGSNEIQRNILAKSVLGLPG”, which “soluble on expression in E. coli” value is on record?
Its value is “not soluble”.

For “MTDYFTAHDVLKKVEGLNSLSTLNKWANFIQKECDYQFHYDYIRFASHTRTKRTINHRKTRMFSLEEIQKFQKVIKLIPILGRNTSLRKLFDKKHHLDTMNHSELLTEIINQIEVKLANKEELFQALTKKYQQLERSYQTLEQRLAQLEESLSTQEQTSSGWFRRKR”, which “soluble on expression in E. coli” value is on record?
Its value is “not soluble”.

With “MTDYGDADKYVNDESIEMAWAIKAGERSEVHMNLIMRCDTRVLRLNKHQDAILAAFRSSFPDLNVEEVTTSLLKDGGAKETWREFCEQFKDIVDDYSMGTLMRIHASKAYSPENTVVVPRIIYLAIEMARNVEGVNEKNKEAYTAHRNSLASL” as the sequence, how does the “soluble on expression in E. coli” value read?
Its value is “soluble”.

For “MTEHTAPTAPVADVCLLLEGTWPYVRGGVSSWVNQLILGLPDLTFSVFFIGGQKDAYGKRHYPIPDNVLHIEEHFLETAWSSPNPQTRQGSSETEKALRDLHRFFHYPETPDVEEGDALLDLLAEGRIGREDFLHSKASWEAITAGYERYCTDPSFVNYFWTLRSMQAPVFMLAEAARRMPRARMLHSISTGYAGLLGCILQRRWGCRYLLSEHGIYTKERKIDLAQANWIAENPDEQLSTGLDAEVSYIRRLWIRFFERVGLLTYRAANPIVALYEGNRQRQVLDGAEPRRTRVIPNGIDLDAWTGALERRPPGIPPVVGLVGRVVPIKDVKTFIRAMRGVVSAMPEAEGWIVGPEEEDPDYASECRSLVASLGLQDKVKFLGFRRIGEVLPQLGLMVLTSISEAQPLVILEAWAAGAPVVSSDVGSCRELIEGADAEDRALGRAGEVVAIADPQATSRAILALLRNPQRWQAAQAVGLQRVERYYTEALMLGRYRGLYREATEIA”, which “soluble on expression in E. coli” value is on record?
Its value is “not soluble”.

For “MTEKTTVKTLKDVVVRFCGDSGDGMQLTGTIFSDLSAVFGNTISTFPDYPAEIRAPQGTLGGVSGFQVHIGTDLVRTPGDLADVLVAMNPAALKVNRTHVRRDSIIIIDSDSFMASDLEKAEIASEDFMTELGLTTQELFTVPISSMVKKSTAEFGLDVKAALRCKNMFALGLVCWLFDRPTQHAIDYLNRKFGKKEAILNANIKALADGFNYGHNTHATATTYRIEGRKQTPGVYMDISGNKATAYGLVAAAEHANLNL”, which “soluble on expression in E. coli” value is on record?
Its value is “soluble”.

Which “soluble on expression in E. coli” value does the source give for “MTELKNDRYLRALLRQPVDVTPVWMMRQAGRYLPEYKATRAQAGDFMSLCKNAELACEVTLQPLRRYPLDAAILFSDILTVPDAMGLGLYFEAGEGPRFTSPVTCKADVDKLPIPDPEDELGYVMNAVRTIRHELKGEVPLIGFSGSPWTLATYMVEGGSSKAFTVIKKMMYADPQALHALLDKLAKSVTLYLNAQIKAGAQAVMIFDTWGGVLTGRDYQQFSLYYMHKIVDGLLRENDGRRVPVTLFTKGGGQWLEAMAETGCDALGLDWTTDIADARRRVGNKVALQGNMDPSMLYAPPARIEEEVATILAGFGHGEGHVFNLGHGIHQDVPPEHAGVFVEAVHRLSEQYHR” here?
Its value is “soluble”.

For “MTELPLQFAEPDDDLERVRATLYSLDPDGDRTAGVLRDTLDQLYDGQRTGRWNFDQLHKTEKTHMGTLVEINLHREFQFGDGFETDYEIAGVQVDCKFSMSQGAWMLPPESIGHICLVIWASDQQCAWTAGLVKVIPQFLGTANRDLKRRLTPEGRAQVVKLWPDHGKLQENLLLHIPGDVRDQIFSAKSSRGNQHGQARVNELFRRVHGRLIGRAVIATVAQQDDFMKRVRGSGGARSILRPEGIIILGHQDNDPKVANDLGLPVPRKGQVVAARVVPADEGDQRQTAEIQGRRWAVAVPGDPIVEAPVVPRKSAE”, which “soluble on expression in E. coli” value is on record?
The value was “soluble”.

For “MTENLLAERHALRWVFLYEFPQICNCNEARRNMCAVLGKNSVTYNTMKFWFEKFTKKNYDLDDKPR”, which “soluble on expression in E. coli” value is on record?
The value was “soluble”.

For “MTERFFAPCPRGLETVLAAELERLDATSIQASPGGVGFHGNWQTCYRANLESRIASRILWQIAKDQYRSEADIYDLTHSLPWQDWFEPRLSIKVNLAAIKCPLRSLDFVTLRIKDAVCDKFRAIHGKRPDIDTVAPDMRIHGFLNAQEFTLYLDTSGEALFKRGLRQTQGEAPLRENLAAGILALTGWQPGTPLLDPMCGSGTLLLEAAQIACRIAPGSGRQFAFEQLKLFDARSWKKLKQTATERQHERTFQSIYGSDLYGSALAHTRNNLAAAGLAECVTLKQANVLEISAPAETGILVSNPPYGVRIGDHQMLAEFYPRLGDVLKQRFSGWRAFLLTADPLLAKSIRLTPSRRTPLFNGALECRLLEYRLVAGSMRREKQPSSESSTNQPIT”, which “soluble on expression in E. coli” value is on record?
The value was “not soluble”.

With “MTERLKVMTIFGTRPEAIKMAPLVLELQKHPEKIESIVTVTAQHRQMLDQVLSIFGITPDFDLNIMKDRQTLIDITTRGLEGLDKVMKEAKPDIVLVHGDTTTTFIASLAAFYNQIPVGHVEAGLRTWDKYSPYPEEMNRQLTGVMADLHFSPTAKSATNLQKENKDESRIFITGNTAIDALKTTVKETYSHPVLEKLGNNRLVLMTAHRRENLGEPMRNMFRAIKRLVDKHEDVQVVYPVHMNPVVRETANDILGDYGRIHLIEPLDVIDFHNVAARSYLMLTDSGGVQEEAPSLGVPVLVLRDTTERPEGIEAGTLKLAGTDEETIFSLADELLSDKEAHDKMSKASNPYGDGRASERIVEAILKHFNK” as the sequence, how does the “soluble on expression in E. coli” value read?
Its value is “not soluble”.

For “MTERLLVGVIVGSHGVRGLVRVKSFTQDEMALCDYGPLSDETGTRRFAVEVRNQAKGVVICQIPGVSDRTAADALKGTRLFLDRAALPADALEEDEYYHADLIGLPVDLVDGGRLGVVHSVHDFGAGDMLEVTLAQGRRSVLLPFTKAVVPLVDVKAGRLVADPPLGLLDDTRPPAGVEGEVEEDPGVGIDEDGDGKGGASLEHHHHHH”, which “soluble on expression in E. coli” value is on record?
Its value is “soluble”.
